The data set is described as follows: label from the status in PepcDB records.
In the case of “MSLTTSHFIPFPREMVWDWHTRKGAVARLTPPFIPLNPITQAERLADGTTIFSLPAGLKWVARHDLSGFLNGSRFTDVCLTAPVKALANWRHVHNFVDQDGGTLITDSVSTRLPASTLTGMFAYRQTQLIEDLKFLSRTSTLFDGSPLTVAITGSRGLVGRALTAQLQTGGHEVIQLVRKEPKPGKRFWDPLNPASDLLDGADVLVHLAGEPIFGRFNDSHKEAIRESRVLPTKFLAELVAESTQCTTMISASAVGFYGHDRGDEILTEESESGDDFLAEVCRDWEHATAPASDAGKRVAFIRTGVALSGRGGMLPLLKTLFSTGLGGKFGDGTSWFSWIAIDDLTDIYYRAIVDAQISGPINAVAPNPVSNADMTKILATSMHRPAFIQIPSLGPKILLGSQGAEELALASQRTAPAALENLSHTFRYTDIGAAIAHELGYEQLADFAQQQEIEAERKQERAELKAAKKIAKKAPVLEESPTNLEDPEEVEQSILSSILNFRRKRNDLEHHHHHH”, the protein production result is reported as “not failed”.
Consider “MKKQSLVATSLLAAFITGACTADTNIQAKPIVSQVKAKKLIKPNVLFIAVDDLRVQYGPYDFDKAITPNIDRLVNQGVAFTQAYSNVPVCGASRASMLTGVRPTINRFVAFESADKVAPWAPSIAKVFSDNGYTTYSLGKIFNNLTDHANDWSEFPWRPEGAKNEDSTSGNKKQASLLSRHDYVTSDGVAMAKKGIKNHPAFEKADVVDDAYKNGKIAKRAISDLKRLKKAGKPFFLAVGLKKPHLPFNAPSKYWDLYDESTIELTKIPLKAKDSPSQSDHNWNELRNYGHDGAMPKKGKMSDEMARKLIHGYHAATSYSDALIGNILTELESLGLEENTIVVLWGDHGWSLGEHTHWAKHSSYDVTNHIPLIIKVPGMTNGEFSKGLVESVDIFPTLTQLAGLPAPSSLQGDSLVPMLKNPQATVNDAVYPRWKNADSIRTPNYMYTEWRNKKNNKVIARMLFDHRVDPRETINVAENFKYAQVVVDLHNQLAAHIAQVEK”, for which the protein production result is given as “failed”.
As for “MNAINTKVTPTKRKQVALFSSDPNFKRDVATRLDALAIYDVRVSETDDFLKGPPADTRPGIVILDLGGGDLLGKPGIVEARALWATVPLIAVSDELTSEQTRVLVRMNASDWLHKPLDGKELLNAVTFHDTGNQ”, the protein production result is on record as “not failed”.
Consider “MNNLINNPLFGILLTLFAFEIGMTIYKKTKIPLLNPLLIAIALVIAVLVSCHISFETYNIGGSFINAFLGPATVILAVPLYKQLQLLKNHFVPIMTGIIVGSFASMCCVIIMGYFLGVNHELIASLVPKSVTTPIGVEVASGLGGIPSITVIAVIITGITGAIIAPMVCKLLKIDHEVAMGVSMGTAAHAVGTTKALEIGETHGAMSSLSIGVAGLITVFLAPPIYMLSALILKFV”, for which the protein production result is “failed”.
Consider “MRNKDLEPHSFELWLNAAKTNLDKYEMALIITATLGLRRGEVMGLRNESIKISHDQINDADVAQISIDMQRNTNELNGGPLKTKSSYRTIWAFGKTVDHLKYAMITADNLRQRNNIQAEKHWLWLNNDGNPLHPTHLNRLMRRVSNRSGVEVYPHLLRHYFATQAIAANKPQIDVMHYLGHKNLQMTADYTRSTKAASLNVFNSIDKFLLEHHHHHH”, for which the protein production result was “failed”.
Take “MNQHTLLPKKTERLQYFGSVSPIKGEKPVEKEKMKDLQNIRKDYFFDIQHVGVANVSHPVTITSAMMPAEQTTAANFTMTCNLPRNQKGINMSRLTELLQVYHQNGWILSFSSLQQFTKELAENMDTSSATVEVRFPWFFERKSPKLEKAGLMHADIFMSVTYRKDQPFKQRAGISAKVTTLCPCSKEISEYSAHNQRGTVKHLGRIFTRAASLPSDVKADLPHAAESNASARLHPVLKRPDEKAVTETAYENPRFVEDLARLIAADLFELEWVSAFEIECRNEESIHLHRCLCEVCFSKEVDKI”: the protein production result was “failed”.
Consider “MEVDEDIELQKHQEQQSRKLQRFSEDNTGLMRNWNNPSSRIIRVSRASGGKDRHSKVLTSKGLRDRRIRLSVATAIQFYDLQDRLGFDQPSKAVEWLINAASDSITDLPLLNTNFDHLDQNQNQTKSACSSGTSESSLLSLSRTEIRGKARERARERTAKDRDKDLQNAHSSFTQLLTGGFDQQPSNRNWTGGSDCFNPVQLQIPNSSSQEPMNHPFSFVPDYNFGISSSSSAINGGYSSRGTLQSNSQSLFLNNNNNITQRSSISSSSSSSSPMDSQSISFFMATPPPLDHHNHQLPETFDGRLYLYYGEGNRSSDDKAKERR”, for which the protein production entry is listed as “failed”.
As for “MTRSEAQGRLTGLAPVSVIDIGSNSVRLVVYEGLSRAPAVLFNEKVLCGLGKGLALTGRMHEEGVTRALMALRRFHVLSEQAQAQKLYVLATAAAREAENGPDFIREAEAILGCEIEVLSGEKEALYSAYGVISGFYQPDGIAGDLGGGSLELIDIKDKSCGEGITLPLGGLRLSEQSDGSLEKAATIARKHVKSFAKLLAAGEGRTFYAVGGTWRNIAKLHMEISGYPLHMMQGYELPLEEMLNFLEEVIVSRDSKDPAWQAVSKNRRSLLPFGAIAMREVLRAMKPAKIAFSAQGVREGYLYSLLTEAERESDPLLVAADELAILRARSPEHARELADWSGRTFPVFGIDETEEESRYRQAACLLADISWRAHPDYRGLQALNIIAHSSFVAITHPGRAYIALANYYRFEGLNDNGTTEPLAAMAGERLQELGKLLGGLLRVVYLFSASMPGVVDHLKFRKSDNPDIDLEFVVPHDYCDFAGERLDGRLQQLAKLTGKRLAFVFE”, the entry is “not failed”; as for “METYDVLVVGGGPGGSTAARYAAKYGLKTLMIEKRPEIGSPVRCGEGLSKGILNEADIKADRSFIANEVKGARIYGPSEKRPIILQSEKAGNEVGYVLERDKFDKHLAALAAKAGADVWVKSPALGVIKENGKVAGAKIRHNNEIVDVRAKMVIAADGFESEFGRWAGLKSVILARNDIISALQYRMINVDVDPDYTDFYLGSIAPAGYIWVFPKGEGMANVGIGSSINWIHNRFELKNYLDRFIENHPGLKKGQDIQLVTGGVSVSKVKMPITMPGLMLVGDAARLIDPITGGGIANAIVSGMYAAQVTKEAIESNDYSPQMMQKYEKLIKERFERKHLRNWVAKEKLAMLSDDTLDKLVDIVSEQVLTTISVEAILKAIAEKYPEVVKELEDLI”, “not failed”; as for “MRNTDDYIIFYHLVEQGSFSSAARHMELTKSVVSKRIAKLEQELGVQLLYRTTRTLTLTEAGQSFFVHAKAVYKAVATAEESIVGLGKNLSGNIKITVPTISGELILPGVISEFNDKYPDINIDMELDNRFVDIVNERFDLAIRTGMLPDSSLIARKLVDANWVVCASPKYLAKHGIPKQPIELTKHNCLVYSYQETGAREWAFKAGDKMYQVTVDGNLCTNNSSALRNVALLGQGVIYVPRVLVYEDLKQGSLIQLFKEETAKCLGIYAVYPYTRQQPEKIKIFIDHLYNSFQSQNHRF”, “failed”.
Take “MKANAIASDIKISKRDLEVAALAVIGTVAYIHYLWSFVLKITSPILIARGIFETTYSVLSIGLAKYVRIYYPLGIASSFTGAALTVIKLHLYESEIFSIINIVFDIFSVPVCAFLFIKNMEVINWH”: the protein production entry is “failed”.
For “DDRQEEKMIKENVYFDGNVKSLGFSQQDGESTVGVMAPGQYTFGTGAPERMTVVKGALTIKRVTDADWVTFTAGEAFEVAGNSSFDLQVEVATAYLCEFL”, the protein production result is reported as “failed”.
As for “MVRLLHVSFVSHGAAWLPIHSCTGSHGQCERRAAGGPEAWATTPSLAAMPIDTRARQPSCDNRVMNDAALAPDVSAALERGLQAQSLDTAFAAPLLRYLALLVRWNKTYNLTAVRDPRAMVTRHLLDSLAMQPYIASGMLADLGTGPGLPGIPLAITRPQLQVTLVESNGKKARFMREALRHLELRNARVAESRAEALDEPTAYDHLTARALDTLAGIIAVGGHLLRPGGSLLAMKGIYPHEEIAALPEGWTMSEVHQLQVPGLDGERHLVVVRKA”, the entry is “failed”; as for “MSLVVFLIAYVIRRRLDRADHLAGDEVWRNWFHRWGRVEAGQERSVWRGALLVVLPSLALAGAWALSSEAGYRYALYPLELVLMVVLMGAPGWRKVLRAYSDAWRRGDMQAAWHHVQERLPASERGAALSPEAMHLSVSRALMVSVFERFFLVVFWYAVGGIALAFLARGLVALAGQWPQAAARERYQRAARLIGWIPSRLLSCTFGLAGDLAGWSREIRKVFPGFGKKTADVLMISANGSLTGYALDPARFSELHPEEWPDFGGRSLSAIRDLLNRSMLVWICAFALLVIAGMA”, “failed”; as for “SPLPVALQTRLAKRGILKHLEPEPEEEIIAEDYDDDPVDYEATRLEGLPPSWYKVFDPSCGLPYYWNADTDLVSWLSPHDPNSVVTKSAKKLRSSNADAEEKLDRSHDKSDRGHDKSDRSHEKLDRGHDKSDRGHDKSDRDRERGYDKVDRERERDRERDRDRGYDKADREEGKERRHHRREELAPYPKSKKAVSRKDEELDPMDPSSYSDAPRGTWSTGLPKRNEAKTGADTTAAGPLFQQRPYPSPGAVLRANAEASRTKQQD”, “not failed”.
In the case of “MDAMEFFRQSAGQWRSQRTTHHLAFRRAENGDSSISVEALEKDDPRVIEICTMHEVDPATAIGGAYVSWQGSMEWDRDAEGHSGTTVFALVPDDASGRSGQLLRERGYAEIVPVIGRFELDENNNLNLVTDYETMSAVEQFWFMGPSLRLRASTVTRFGGLSTAAFCAEVRQTEAAADSEPLKADQLYSSLGW”, the protein production entry is “failed”.
Take “MTVAPTTHVPPARPAAYRELVRQRNSFTVAMTLTFLVLYFLLPLLAGYNKPLMATKVFGNVTFGYVLAFLEFLMGWVMAAIYVRKARTFDRLALEAQVPGGGA”: the protein production entry is given as “failed”.
As to “MSLEAVTILLADDEAILLLDFESTLTDAGFLVTAVSSGAKAIEMLKSGAAIDGVVTDIRFCQPPDGWQVARVAREIDPNMPIVYISGHAALEWASNGVPDSIILEKPFTSAQLITAVSQLLNAREGHHHHHH”, the protein production entry is recorded as “not failed”.
The result for “QIDFQVLHDLRQKFPEVPEVVVSRCMLQNNNNLDACCAVLSQESTRYLYGEGDLNFSDDSGI” reads “not failed”; that for “MKKILFCLPLLLLALQSCEIEDEYMYDKGLYTIDWDAAADSSSVTLIDRFWNTEENYFNYGNDGSIKDFHYWPQAHAMDVMIDAYNRTGDSKYSDLFDKWYVGIKAKNGGSYWNNFYDDMEWIALTMIRLYEVTDENKYLETSQEMWNEIKTGWNDYAGGGIAWTHDQLWSKNACSNGPAALIAARLYRINGNQEDLDWAVNIYKWERENLFNPATGAIYDNVNGETGELSTLSLSYNQGTFLGAAYELYKITGEESYLKDARKAANFAISNSSMIDTGNNLLRDEGDGDGGLFKGIFMRYYVQLIMEPNLDPIYKKKFITFFNNNAEILWRKGINKLDLLYNTNWAMNNSGNNHLTTQTSGCTLIEAKALFEKSLK”, “failed”.
Take “MLTPLQIYFPIGVVLLVAVVLAFTMLGLANVLGPRRPSLVKQTPFECGSEPIGSARERFGVKFYVVALLFIVFDIEAIFLYPWAVLLLPDGQGYPGLGWPGFISMGIFVFTLVAGLVYVWKKGVLDWAD”: the protein production entry is “failed”.
On to “MRTLTTLLGNSQKLDGGAMFGNAPRALWSRWMQPDAENRIDLGCRALLVRDGERNVLVEAGIGAFFPPALRQRYGVQEERHVLLDSLAAVGLDDADIDVVLLTHLHFDHAGGLLAAWEEGQPARLLFPNAHFVSGRRHWQRARQPHPRDRASFVPELLDLLQASGRLELLDDGERSAHLGEGWRFHFSEGHTPGQMLPEIAMPDGPVVFSGDLIPGAPWVHLPLTMGYDRFPEGLIEEKERLLDSLIARNGRLVFTHDPCVAMGRVRRDEQERYSLYDTLERVENLEA”, for which the protein production result is recorded as “failed”.

Values taken from a protein production outcome set (Wang et al. 2014).
